Where “and” joins values, the source holds several entries; their conditions need not be identical. Identical values can stand only once.
Key:
[1] = system: YqhD (purified); conditions: furfural reductase study, Miller et al (2009); read-out: Km value for NADPH; cited from earlier work
[2] = system: YqhD single mutant Q202A; conditions: versus parent YqhD, Li et al, 2008; cited from earlier work
[3] = system: YqhD double mutant D99Q N147H; conditions: versus parent YqhD, Li et al, 2008; cited from earlier work
[4] = Methylglyoxal reductase activity assay, kinetics of purified YqhD enzymes toward co-factor NADPH; type: biochemical, E. coli
Experimental: (§1) Methylglyoxal reductase activity was assayed by measuring the initial rate of NADPH oxidation with a spectrophotometer at a wavelength of 340 nm and at a constant temperature of 37° C. The reaction mixture using methylglyoxal as substrate was carried out in 20 mM Hepes pH 7.5, 0.1 mM Zinc sulphate, 0.2 mM NADPH, 0.6 μg of purified enzyme in a final volume of 1 ml. The reaction mixture was incubated for 5 min at 37° C. and then the reaction was initiated by the addition of the substrate methylglyoxal at a final concentration of 10 mM. Control assay (blank), lacking the substrate was run in parallel and the value measured for the control was subtracted to the value measured for the assay to take into account non-specific oxidation of NADPH.
(§2) One unit of enzyme activity was defined as the amount of enzyme that consumed 1 μmol substrate per minute under the conditions of the assay. Specific enzyme activity was expressed as units per mg of protein.
(§3) Kinetic constants (Km, kcat and kcat/Km) for the four purified enzymes (yqhD, yqhD*(G149E), yqhD*(G149S) and yqhD*(G149S A286T)) toward methylglyoxal were determined using the activity assay previously described. In this case the reaction was started by addition of the purified enzyme. Nine NADPH concentrations between 6 μM and 300 μM were analysed for each enzyme. For all kinetics, initial velocity was determined in triplicate for all co-factor concentrations.
Kinetic constants (Km and Vmax) of each protein were determined with the module enzyme kinetics from the software Sigma Plot (Systat Software Inc, San Jose, Calif.). […] The different kinetic parameters of four YqhD enzymes were compiled in Table 7.

[5] = Methylglyoxal reductase activity assay, kinetics of purified YqhD enzymes toward methylglyoxal; type: biochemical, E. coli; conditions: for Kinetic parameters (Km, kcat, kcat/Km) compared to the native protein / Specific activity compared to that of YqhD: in words
Experimental: as §1, §2
as §3, with “Seven methylglyoxal” for “Nine NADPH”, “1.3 mM” for “6 μM”, “30 mM” for “300 μM”, “substrate” for “co-factor”
Kinetic constants (Km and Vmax) of each protein were determined with the module enzyme kinetics from the software Sigma Plot (Systat Software Inc, San Jose, Calif.). […] The different kinetic parameters of four YqhD enzymes were compiled in Table 6.

[6] = Inhibition of the YqhD enzymes by NADP+ (competitive inhibition model); type: biochemical, E. coli; conditions: NADP+ inhibition experiment, 20 mM methylglyoxal
Experimental: as §1
The NADP+ inhibition constant for three purified enzymes (yqhD, yqhD*(G149E) and yqhD*(G149S A286T)) were determined in the conditions described for the activity assay, excepted for the concentration of methylglyoxal that was increased to 20 mM. Enzyme kinetics with regards to NADPH were realised with increasing concentration of NADPH between 50 and 200 μM. Five concentrations of the inhibitor NADP+ were used (0-0.05-0.1-0.2-0.5 mM) and the kinetics were recorded for each condition of inhibition. The NADP+ inhibition constant (Ki) of each protein was determined with the module enzyme kinetic from the software Sigma Plot (Systat Software Inc, San Jose, Calif.). A model of competitive inhibition was fitted by the software.

[7] = substrate: NC(=O)C1=CN([C@@H]2O[C@H](COP(=O)(O)OP(=O)(O)OC[C@H]3O[C@@H](n4cnc5c(N)ncnc54)[C@H](OP(=O)(O)O)[C@@H]3O)[C@@H](O)[C@H]2O)C=CC1; test: purified protein, by the assay type; conditions: other: NADPH 6-300 μM, 10 mM methylglyoxal, pH 7.5, 37° C.
[8] = substrate: CC(=O)C=O; test: purified protein, by the assay type; conditions: other: methylglyoxal 1.3-30 mM, 0.2 mM NADPH, pH 7.5, 37° C.
Experimental: Kinetic constants (Km, kcat and kcat/Km) for the four purified enzymes (yqhD, yqhD*(G149E), yqhD*(G149S) and yqhD*(G149S A286T)) toward methylglyoxal were determined using the activity assay previously described. In this case the reaction was started by addition of the purified enzyme. Seven methylglyoxal concentrations between 1.3 mM and 30 mM were analysed for each enzyme. For all kinetics, initial velocity was determined in triplicate for all substrate concentrations.

Molecule: NC(=O)C1=CN([C@@H]2O[C@H](COP(=O)(O)OP(=O)(O)OC[C@H]3O[C@@H](n4cnc5c(N)ncnc54)[C@H](OP(=O)(O)O)[C@@H]3O)[C@@H](O)[C@H]2O)C=CC1 [NADPH]
- Km [1]: 8 µM

Molecule: O=CCCO [3-HPA, 3-hydroxypropionaldehyde]
- affinity (Km) for 3-HPA [2]: improved affinity (lower Km)
- catalytic efficiency (Kcat/Km) for 3-HPA [2]: improved catalytic efficiency
- affinity (Km) for 3-HPA [3]: improved affinity (lower Km)
- catalytic efficiency (Kcat/Km) for 3-HPA [3]: improved catalytic efficiency

B1: E. coli YqhD variant YqhD*(G149S A286T) (Escherichia coli K-12; A286T/G149S) (protein)
chain: MNNFNLHTPTRILFGKGAIAGLREQIPHDARVLITYGGGSVKKTGVLDQVLDALKGMDVLEFGGIEPNPAYETLMNAVKLVREQKVTFLLAVGGGSVLDGTKFIAAAANYPENIDPWHILQTGGKEIKSAIPMGCVLTLPATGSESNASAVISRKTTGDKQAFHSAHVQPVFAVLDPVYTYTLPPRQVANGVVDAFVHTVEQYVTKPVDAKIQDRFAEGILLTLIEDGPKALKEPENYDVRANVMWAATQALNGLIGAGVPQDWATHMLGHELTAMHGLDHAQTLTIVLPALWNEKRDTKRAKLLQYAERVWNITEGSDDERIDAAIAATRNFFEQLGVPTHLSDYGLDGSSIPALLKKLEEHGMTQLGENHDITLDVSRRIYEAAR
- Specific activity [4]: 3.17 ± 0.02 µmol/min/mg
- Specific activity [5]: 2.69 ± 0.10 µmol/min/mg
- Specific activity as share of the specific activity of YqhD [5]: 69%
- Kinetic parameters (Km, kcat, kcat/Km) compared to the native protein [5]: identical to the native protein
- Specific activity [6]: 5.25 ± 0.183 µmol/min/mg
- Km [7]: 20 ± 2.2 µM
- kcat [7]: 2.2 ± 0.1 s⁻¹
- kcat/Km [7]: 1.22 E+05 M−1s−1 and 1.13E+05 ± 1.3E+04 M−1s−1
- Km [8]: 3280 ± 380 µM
- kcat [8]: 1.89 ± 0.07 s⁻¹
- kcat/Km [8]: 577 ± 88 M⁻¹ s⁻¹

B2: E. coli YqhD variant YqhD*(G149E) (Escherichia coli K-12; G149E) (protein)
chain: MNNFNLHTPTRILFGKGAIAGLREQIPHDARVLITYGGGSVKKTGVLDQVLDALKGMDVLEFGGIEPNPAYETLMNAVKLVREQKVTFLLAVGGGSVLDGTKFIAAAANYPENIDPWHILQTGGKEIKSAIPMGCVLTLPATGSESNAEAVISRKTTGDKQAFHSAHVQPVFAVLDPVYTYTLPPRQVANGVVDAFVHTVEQYVTKPVDAKIQDRFAEGILLTLIEDGPKALKEPENYDVRANVMWAATQALNGLIGAGVPQDWATHMLGHELTAMHGLDHAQTLAIVLPALWNEKRDTKRAKLLQYAERVWNITEGSDDERIDAAIAATRNFFEQLGVPTHLSDYGLDGSSIPALLKKLEEHGMTQLGENHDITLDVSRRIYEAAR
- Specific activity [4]: 4.86 ± 0.08 µmol/min/mg
- Specific activity [5]: 7.65 ± 0.31 µmol/min/mg
- Specific activity compared to that of YqhD [5]: almost doubled
- Specific activity [6]: 5.53 ± 0.292 µmol/min/mg
- Km [7]: 28 ± 1.8 µM
- kcat [7]: 3.4 ± 0.1 s⁻¹
- kcat/Km [7]: 122000 ± 9800 M⁻¹ s⁻¹
- Km [8]: 7800 ± 790 µM
- kcat [8]: 5.38 ± 0.21 s⁻¹
- kcat/Km [8]: 689 ± 98 M⁻¹ s⁻¹

B3: E. coli YqhD variant YqhD*(G149S) (Escherichia coli K-12; G149S) (protein)
chain: MNNFNLHTPTRILFGKGAIAGLREQIPHDARVLITYGGGSVKKTGVLDQVLDALKGMDVLEFGGIEPNPAYETLMNAVKLVREQKVTFLLAVGGGSVLDGTKFIAAAANYPENIDPWHILQTGGKEIKSAIPMGCVLTLPATGSESNASAVISRKTTGDKQAFHSAHVQPVFAVLDPVYTYTLPPRQVANGVVDAFVHTVEQYVTKPVDAKIQDRFAEGILLTLIEDGPKALKEPENYDVRANVMWAATQALNGLIGAGVPQDWATHMLGHELTAMHGLDHAQTLAIVLPALWNEKRDTKRAKLLQYAERVWNITEGSDDERIDAAIAATRNFFEQLGVPTHLSDYGLDGSSIPALLKKLEEHGMTQLGENHDITLDVSRRIYEAAR
- Specific activity [4]: 3.78 ± 0.15 µmol/min/mg
- Specific activity [5]: 3.80 ± 0.12 µmol/min/mg
- Kinetic parameters (Km, kcat, kcat/Km) compared to the native protein [5]: identical to the native protein
- Specific activity compared to that of YqhD [5]: similar
- Km [7]: 22 ± 3.7 µM
- kcat [7]: 2.7 ± 0.1 s⁻¹
- kcat/Km [7]: 122000 ± 25000 M⁻¹ s⁻¹
- Km [8]: 3370 ± 340 µM
- kcat [8]: 2.67 ± 0.09 s⁻¹
- kcat/Km [8]: 792 ± 105 M⁻¹ s⁻¹

B4: Escherichia coli MG1655 YqhD, native (wild type), SEQ ID NO: 56 (Escherichia coli K-12) (protein)
chain: MNNFNLHTPTRILFGKGAIAGLREQIPHDARVLITYGGGSVKKTGVLDQVLDALKGMDVLEFGGIEPNPAYETLMNAVKLVREQKVTFLLAVGGGSVLDGTKFIAAAANYPENIDPWHILQTGGKEIKSAIPMGCVLTLPATGSESNAGAVISRKTTGDKQAFHSAHVQPVFAVLDPVYTYTLPPRQVANGVVDAFVHTVEQYVTKPVDAKIQDRFAEGILLTLIEDGPKALKEPENYDVRANVMWAATQALNGLIGAGVPQDWATHMLGHELTAMHGLDHAQTLAIVLPALWNEKRDTKRAKLLQYAERVWNITEGSDDERIDAAIAATRNFFEQLGVPTHLSDYGLDGSSIPALLKKLEEHGMTQLGENHDITLDVSRRIYEAAR
- Specific activity [4]: 2.99 ± 0.1 µmol/min/mg
- Specific activity [5]: 3.91 ± 0.11 µmol/min/mg
- Specific activity [6]: 3.63 ± 0.284 µmol/min/mg
- Km [7]: 32 ± 4.2 µM
- kcat [7]: 2.1 ± 0.1 s⁻¹
- kcat/Km [7]: 66000 ± 11000 M⁻¹ s⁻¹
- Km [8]: 4810 ± 410 µM
- kcat [8]: 2.74 ± 0.08 s⁻¹
- kcat/Km [8]: 570 ± 65 M⁻¹ s⁻¹

Source: US8969053B2, “Mutant YqhD enzyme for the production of a biochemical by fermentation” (Metabolic Explorer, priority 2009, dated 2015)
